The Kd is the concentration at which binding is half-saturated. A high value points to lower affinity.

The record followed here is patent US20240301038A1.

This assay has as its target SARS-CoV-2 Spike Receptor Binding Domain (RBD) (Sino Biological) (SARS-CoV-2), P0DTC2. The note with it: remark: other sources report otherwise.

B1: AB-009620 (antibody, V domains shown)
VH: QITLKESGPTLVKPTQTLTLTCTFSGFSLSTSGVGVGWIRQPPGKALEWLALIYWDDDKRYSPSLKSRLTITKDTSKNQVVLTMTNMDPVDTATYYCAHHEVATVFDYWGQGTLVTVSS
VL: QSALTQPASVSGSPGQSITISCTGTSSDVGAYNYVSWYQQHPGKAPKLMIYEVSNRPSGVSNRFSGSKSGNTASLTISGLQAEDEADYYCSSYTSSSTVFGGGTKLTVL
Take B1: the Kd turned out to be 5.99 nM.
